T1: human FcγRIIb (human, UniProt P31994 43-217)
T1 construct: also called FcγIIB
T1 sequence: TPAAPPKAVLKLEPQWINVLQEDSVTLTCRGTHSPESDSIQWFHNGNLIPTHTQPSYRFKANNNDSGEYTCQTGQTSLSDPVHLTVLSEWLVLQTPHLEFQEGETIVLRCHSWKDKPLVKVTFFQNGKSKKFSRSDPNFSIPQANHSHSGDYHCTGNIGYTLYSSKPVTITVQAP

T2: human FcγRIIa type H (human, UniProt P12318 36-217)
T2 construct: Whole entry named for FcγRIIa allotype H131 (AAH20823.1); also called FcγRIIaH; FcγRIIa(H)
T2 sequence: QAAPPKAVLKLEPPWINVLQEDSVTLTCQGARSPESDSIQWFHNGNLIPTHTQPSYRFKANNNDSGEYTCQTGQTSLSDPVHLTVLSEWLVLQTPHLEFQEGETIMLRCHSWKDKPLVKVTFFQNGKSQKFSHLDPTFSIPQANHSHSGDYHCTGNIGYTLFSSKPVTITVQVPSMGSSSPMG

T3: human FcγRIIa type R (human, UniProt P12318 36-217)
T3 construct: also called FcγRIIaR; FcγRIIa(R)
T3 chain: T2 sequence with H133R

T4: human FcγRIIa type H (human, UniProt P12318 36-217)
T4 construct: also called FcgRIIaH; FcγRIIa(H)
T4 sequence: T2 sequence

T5: human FcγRIIb (human, UniProt P31994 43-217, limits assumed)
T5 construct: also called FcgRIIb; FcγIIB
T5 sequence: T1 sequence

T6: human FcγRIIb (human, UniProt P31994 43-217)
T6 construct: also called FcγIIB
T6 sequence: T1 sequence

B1: IL6R-BP112/IL6R-L (antibody, human IgG1)
heavy: QVQLQESGPGLVKPSETLSLTCAVSGHSISHDHAWSWVRQPPGEGLEWIGFISYSGITNYNPSLQGRVTISRDNSKNTLYLQMNSLRAEDTAVYYCARSLARTTAMDYWGEGTLVTVSSASTKGPSVFPLAPSSKSTSGGTAALGCLVKDYFPEPVTVSWNSGALTSGVHTFPAVLQSSGLYSLSSVVTVPSSSLGTQTYICNVNHKPSNTKVDKKVEPKSCDKTHTCPPCPAPELLGGDSVFLFPPKPKDTLMISRTPEVTCVVVDVSHEDGEVKFNWYVDGVEVHNAKTKPREEQYNSTYRVVSVLTVLHQDWLNGKEYKCKVSNKALPAPIEKTISKAKGQPREPQVYTLPPSRDELTKNQVSLTCLVKGFYPSDIAVEWESNGQPENNYKTTPPVLDSDGSFFLYSKLTVDKSRWQQGNVFSCSVMHEALHNHYTQESLSLSP
light: DIQMTQSPSSLSASVGDRVTITCRASQDISSYLNWYQQKPGKAPKLLIYYTSRLHSGVPSRFSGSGSGTDFTFTISSLQPEDIATYYCQQGNTLPYTFGQGTKVEIK
notes: copies: 2 + 2
B2: IL6R-BP126/IL6R-L (antibody, human IgG1)
heavy: B1 heavy with G273P, K328L
light: B1 light
notes: copies: 2 + 2
B3: IL6R-BP142/IL6R-L (antibody, human IgG1)
heavy: B1 heavy with G273P, K328N
light: B1 light
notes: copies: 2 + 2
B4: IL6R-BP120/IL6R-L (antibody, human IgG1)
heavy: B1 heavy with G273P, K328E
light: B1 light
notes: copies: 2 + 2
B5: IL6R-BP136/IL6R-L (antibody, human IgG1)
heavy: B1 heavy with G273P, K328A
light: B1 light
notes: copies: 2 + 2
B6: IL6R-BP117/IL6R-L (antibody, human IgG1)
heavy: B1 heavy with G273P, K328D
light: B1 light
notes: copies: 2 + 2
B7: IL6R-BP911/IL6R-L (antibody, human IgG1)
heavy: B1 heavy with G273P, A332K
light: B1 light
notes: copies: 2 + 2
B8: IL6R-BP214/IL6R-L (antibody)
heavy: B1 heavy with E235D, L236Y, G239D, G273P, Y298D, K328D, A332K
light: B1 light
notes: copies: 2 + 2
B9: IL6R-BP192/IL6R-L (antibody, human IgG1)
heavy: B1 heavy with E235D, H270D, Y298D, A332K
light: B1 light
notes: Anti-human IL-6 receptor human IgG1 variant; copies: 2 + 2
B10: IL6R-BP193/IL6R-L (antibody, human IgG1)
heavy: B1 heavy with E235D, H270D, A332K
light: B1 light
notes: as for B9

Residue numbers refer to the chain shown, from its start.

These results are taken from patent publication US20140105889A1 (published 2014).

The target of one experiment is T1, human FcγRIIb. Description: SPR (Biacore), FcγR over captured antibody; amount bound relative to IL6R-BF648/IL6R-L x100. A general note: In SPR one partner is held on a chip, and binding of the other changes the refractive index at the surface.
In the case of B1, the relative binding is 157 relative value (IL6R-BF648/IL6R-L = 100).

For B2, the relative binding is 103 relative value (IL6R-BF648/IL6R-L = 100).

In the case of B3, the relative binding is 106 relative value (IL6R-BF648/IL6R-L = 100).

B4: the relative binding is 114 relative value (IL6R-BF648/IL6R-L = 100).

In the case of B5, the relative binding is 119 relative value (IL6R-BF648/IL6R-L = 100).

In the case of B6, the relative binding is 118 relative value (IL6R-BF648/IL6R-L = 100).

With B7, the relative binding was 119 relative value (IL6R-BF648/IL6R-L = 100).

The target of another experiment is T7, human FcγRIa (human, UniProt P12314 16-292, limits assumed).
T7 construct: also called CD64
Described as above.
T7 sequence (P12314 16-292 limits assumed): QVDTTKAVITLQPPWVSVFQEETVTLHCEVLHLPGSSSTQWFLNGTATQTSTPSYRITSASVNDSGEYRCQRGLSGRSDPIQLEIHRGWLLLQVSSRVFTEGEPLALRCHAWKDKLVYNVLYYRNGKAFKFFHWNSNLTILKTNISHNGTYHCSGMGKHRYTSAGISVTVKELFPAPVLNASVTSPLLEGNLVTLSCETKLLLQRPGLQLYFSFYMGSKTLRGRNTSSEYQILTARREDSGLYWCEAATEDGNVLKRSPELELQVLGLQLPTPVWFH
Consider B1, for which the relative binding is 119 relative value (IL6R-BF648/IL6R-L = 100).

As to B2, the relative binding is 113 relative value (IL6R-BF648/IL6R-L = 100).

Take B3: the relative binding is 98 relative value (IL6R-BF648/IL6R-L = 100).

For B4, the relative binding was 125 relative value (IL6R-BF648/IL6R-L = 100).

Turning to B5, the relative binding is 117 relative value (IL6R-BF648/IL6R-L = 100).

As for B6, the relative binding was 124 relative value (IL6R-BF648/IL6R-L = 100).

With B7, the relative binding is 52 relative value (IL6R-BF648/IL6R-L = 100).

A further experiment concerns the target T2, human FcγRIIa type H. Described as above.
Regarding B1, the relative binding was 113 relative value (IL6R-BF648/IL6R-L = 100).

As to B2, the relative binding is 132 relative value (IL6R-BF648/IL6R-L = 100).

Consider B3, for which the relative binding was 97 relative value (IL6R-BF648/IL6R-L = 100).

In the case of B5, the relative binding was 103 relative value (IL6R-BF648/IL6R-L = 100).

On to B6, for which the relative binding was 96 relative value (IL6R-BF648/IL6R-L = 100).

With B7, the relative binding was 108 relative value (IL6R-BF648/IL6R-L = 100).

A further experiment concerns the target T3, human FcγRIIa type R. The experiment is described as above.
For the molecule B1, the relative binding was 340 relative value (IL6R-BF648/IL6R-L = 100).

In the case of B2, the relative binding was 167 relative value (IL6R-BF648/IL6R-L = 100).

As to B3, the relative binding is 103 relative value (IL6R-BF648/IL6R-L = 100).

On to B4, for which the relative binding is 175 relative value (IL6R-BF648/IL6R-L = 100).

With B5, the relative binding was 159 relative value (IL6R-BF648/IL6R-L = 100).

Regarding B6, the relative binding is 166 relative value (IL6R-BF648/IL6R-L = 100).

With B7, the relative binding was 101 relative value (IL6R-BF648/IL6R-L = 100).

The next experiment deals with T4, human FcγRIIa type H. Put plainly: SPR (Biacore); binding amount divided by that of control IL6R-BF648/IL6R-L, x100.
Description: (§1) According to the following method, relative binding activities were calculated for the results of analyzing interactions with the respective FcγRs.
Consider B8, for which the relative binding activity was 285 % of IL6R-BF648/IL6R-L.

A further experiment deals with T5, human FcγRIIb. The description is as above.
Description: as §1
For B8, the relative binding activity is 174 % of IL6R-BF648/IL6R-L.

The target of the next experiment is T8, human FcγRIa (human, UniProt P12314 16-292, limits assumed).
T8 construct: also called FcgRIa; CD64
Described as above.
T8 sequence (P12314 16-292 limits assumed): as above
Description: as §1
As to B8, the relative binding activity is 36 % of IL6R-BF648/IL6R-L.

For a further experiment, the target named is T6, human FcγRIIb. Put plainly: SPR (Biacore); KD of parent IL6R-B3/IL6R-L for FcγRIIb divided by KD of the variant for FcγRIIb.
Excerpt: Furthermore, KD(IIaR)/KD(IIb) and KD(IIaH)/KD(IIb) in the table respectively represent the value obtained by dividing the KD value of each variant for FcγRIIaR by the KD value of each variant for FcγRIIb, and the value obtained by dividing the KD value of each variant for FcγRIIaH by the KD value of each variant for FcγRIIb.
Turning to B9, the “KD(IIb) of the parent polypeptide/KD(IIb) of the altered polypeptide” value is 27.3.

With B10, the “KD(IIb) of the parent polypeptide/KD(IIb) of the altered polypeptide” value turned out to be 25.5.
